# Where a chain is given by its changes, count along the chain named.
# B1: 24DT02-t: truncated 24DT02 (SEQ ID NO: 4), amino acids from 1 to 295 of 24DT02 amino acid sequence (protein)
# chain: MERHAMSNGKQIVRIEPLPGKTFGAVVTGVRLSELDEDTFSLLYREWLQYALLIFPAQYLTDSQQRDAASKFGCLVEGLEAVEISNLLPTGEVRAAPDDDMMKIIRGNMQWHQDNTYMPLQAKGALFSAKRVPSSGGETGFADMRAAWDALDTETQDRLANLSAYHSLAQSQKNLGEDVKSSDSEYIGYGLDVSTVPRRSLLKIHPETDRKTLAVGRHAFGVTGMAEQESTQFVSDLIDFAVADESRTYHHIWSEGDAILWDNRCLMHRACPWNFSQPRVMLHSRIAGDPSTEAA
# modifications: 24DT02 truncated nucleotide sequence
# B2: 24DT02: herbicide-resistant protein of 298 amino acids, SEQ ID NO: 2, encoded by nucleotide sequence SEQ ID NO: 1 (protein)
# chain: MERHAMSNGKQIVRIEPLPGKTFGAVVTGVRLSELDEDTFSLLYREWLQYALLIFPAQYLTDSQQRDAASKFGCLVEGLEAVEISNLLPTGEVRAAPDDDMMKIIRGNMQWHQDNTYMPLQAKGALFSAKRVPSSGGETGFADMRAAWDALDTETQDRLANLSAYHSLAQSQKNLGEDVKSSDSEYIGYGLDVSTVPRRSLLKIHPETDRKTLAVGRHAFGVTGMAEQESTQFVSDLIDFAVADESRTYHHIWSEGDAILWDNRCLMHRACPWNFSQPRVMLHSRIAGDPSTEAALNS
# modifications: 24DT02 amino acid sequence
# B3: 24DT02-i: substituted 24DT02 (SEQ ID NO: 3), in which the Met267 was substituted with Leu (protein)
# chain: B2 chain with M267L
# modifications: 24DT02 substituted nucleotide sequence
# B4: 24DT02-a: added 24DT02 (SEQ ID NO: 5), Ala, Leu and Val added after the 298th amino acid (protein)
# chain: MERHAMSNGKQIVRIEPLPGKTFGAVVTGVRLSELDEDTFSLLYREWLQYALLIFPAQYLTDSQQRDAASKFGCLVEGLEAVEISNLLPTGEVRAAPDDDMMKIIRGNMQWHQDNTYMPLQAKGALFSAKRVPSSGGETGFADMRAAWDALDTETQDRLANLSAYHSLAQSQKNLGEDVKSSDSEYIGYGLDVSTVPRRSLLKIHPETDRKTLAVGRHAFGVTGMAEQESTQFVSDLIDFAVADESRTYHHIWSEGDAILWDNRCLMHRACPWNFSQPRVMLHSRIAGDPSTEAALNSALV
# modifications: 24DT02 added nucleotide sequence
# Columns and labels:
# [1] = system: Arabidopsis; assay: Effective dose distinguishing sensitive from resistant Arabidopsis; type: in vivo
# [2] = system: Arabidopsis T1 plants transformed with 24DT02 nucleotide sequence; assay: Herbicide resistance effect test of transgenic Arabidopsis T1 plants (24DT02); type: in vivo, Arabidopsis thaliana; conditions: for resistance levels to 2,4-D dimethyl ammonium salt and agroxone, compared among the sequences: Arabidopsis T1 plants transformed with the respective sequence
# Experimental: On 7 days after planting (DAP) and 11 DAP respectively, the T1 plants (cotyledon stage and 2-4 leaves stage, respectively) were sprayed with 0.2% of Liberty herbicide solution (200 g ai/L glufosinate-ammonium) using DeVilbiss compressed air nozzle at a spraying volume of 10 ml/disc (703 L/ha) so as to provide effective amount of glufosinate-ammonium (280 g ai/ha) for each application. The survival plants (actively growing plants) were verified 4 to 7 days after the last spraying and transferred into the square pot (7 cm×7 cm) made from vermiculite and horses dung (3-5 plants per pot). The transplanted plants were covered with moisturizing mask for 3-4 days and placed in culture room at 22° C. or directly into the greenhouse as described above. Then the mask was removed and the plants were planted in greenhouse (22±5° C., 50±30% RH, 14 hours of lighting: 10 hours of darkness, minimum […] natural light+complement light) at least one day before testing the ability of 24DT02 to provide the resistance to phenoxy auxin herbicide.
# 24DT02 gene was used to transform Arabidopsis for the first time. At first, T1 transformants were selected from the background of un-transformed seeds, using glufosinate-ammonium selection scheme. About 40000 T1 seeds were screened among which 195 strains of T1 generation positive transformants (PAT gene) were identified, i.e. the transformation efficiency was about 0.5%. Herbicide resistance effect tests to 2,4-D dimethyl ammonium salt and agroxone of Arabidopsis T1 plants transformed with 24DT02 nucleotide sequence, substituted 24DT02 nucleotide sequence, truncated 24DT02 nucleotide sequence, added 24DT02 nucleotide sequence, control nucleotide sequence respectively and wild-type Arabidopsis plants were performed after 18 days of planting.
# Arabidopsis T1 plants transformed with 24DT02 nucleotide sequence, substituted 24DT02 nucleotide sequence, truncated 24DT02 nucleotide sequence, added 24DT02 nucleotide sequence and control nucleotide sequence respectively and wild-type Arabidopsis plants were sprayed with 2,4-D dimethyl ammonium salt (560 g ae/ha, 1-fold concentration in field), agroxone (560 g ae/ha, 1-fold concentration in field) and blank solvent (water). Resistance conditions of the plants were counted 7 days and 14 days after spraying. Plants with growth conditions consistent with blank solvent (water) 7 days after spaying were classified as highly resistant plants; Plants with curly rosette leaves 7 days after spaying were classified as moderately resistant plants; Plants incapable of bolting 14 days after spaying were classified as low-resistant plants and the dead plants 14 days after spaying were classified as non-resistant plants. Because each Arabidopsis T1 plant was an independent transformation event, significant differences of individual T1 responses were expected under a given dose.
# [3] = system: corn plants transfected with 24DT02 nucleotide sequence; assay: Herbicide-resistance effect test of transgenic corn plants (24DT02; strains S1-S3); type: in vivo, maize; conditions: for resistance levels against 2,4-D dimethyl ammonium salt and agroxone, compared among the sequences: corn plants transformed with the respective sequence
# Experimental: Herbicide resistance effects tests to 2,4-D dimethyl ammonium salt and agroxone of maize plants containing 24DT02 nucleotide sequence, 24DT02 substituted nucleotide sequence, 24DT02 truncated nucleotide sequence, 24DT02 added nucleotide sequence, control nucleotide sequence respectively and wild type maize plants (stages V3-V4) were performed respectively.
# Maize plants containing 24DT02 nucleotide sequence, 24DT02 substituted nucleotide sequence, 24DT02 truncated nucleotide sequence, 24DT02 added nucleotide sequence, control nucleotide sequence respectively and wild type maize plants were taken and spayed with 2,4-D dimethyl ammonium salt (8960 g ae/ha, 16-folds concentration in field), agroxone (8960 g ae/ha, 16-folds concentration in field) and blank solvent (water) respectively. Prop root development was counted 21 days after spaying. Three strains (S1, S2, and S3) of corn plants transfected with 24DT02 nucleotide sequence, two strains (S4 and S5) of corn plants transfected with 24DT02 substituted nucleotide sequence, two strains (S6 and S7) of corn plants transfected with 24DT02 truncated nucleotide sequence, two strains (S8 and S9) of corn plants transfected with 24DT02 added nucleotide sequence, two strains (S10 and S11) of corn plants transfected with control nucleotide sequence and 1 strain of wild type (CK) corn were selected and 10-15 plants from each stain were tested.
Molecule,effective dose to distinguish the sensitive plants from plants with average resistance [1] [g ae/ha],"resistance levels to 2,4-D dimethyl ammonium salt and agroxone, compared among the sequences [2]","resistance levels against 2,4-D dimethyl ammonium salt and agroxone, compared among the sequences [3]","herbicide resistance conferred to plants ([2]; Arabidopsis T1 plants, 2,4-D dimethyl ammonium salt and agroxone 560 g ae/ha, Table 1 and FIG. 4)","herbicide resistance conferred to plants ([3]; transgenic maize plants, 2,4-D dimethyl ammonium salt and agroxone 8960 g ae/ha, Table 2)"
"O=C(O)COc1ccc(Cl)cc1Cl [2,4-D, 2,4-dichlorophenoxyacetic acid]",50,–,–,–,–
B1,–,didn't show significant differences,didn't show significant differences,–,–
B2,–,didn't show significant differences,didn't show significant differences,conferred herbicide resistance to individual Arabidopsis plants,conferred high resistance against herbicides to the transgenic maize plants
B3,–,didn't show significant differences,didn't show significant differences,–,–
B4,–,didn't show significant differences,didn't show significant differences,–,–
